In paper doi:10.1101/2021.05.05.442822:

Target: H3K9me0 peptide
Assay: FP
Conditions: enzyme; modification not given

B1: Full-length human G9a with an N-terminal MBP tag (MBP:FL-G9a), Q96KQ7 1-1210 (protein)
chain: AAAAGAAAAAAAEGEAPAEMGALLLEKETRGATERVHGSLGDTPRSEETLPKATPDSLEPAGPSSPASVTVTVGDEGADTPVGATPLIGDESENLEGDGDLRGGRILLGHATKSFPSSPSKGGSCPSRAKMSMTGAGKSPPSVQSLAMRLLSMPGAQGAAAAGSEPPPATTSPEGQPKVHRARKTMSKPGNGQPPVPEKRPPEIQHFRMSDDVHSLGKVTSDLAKRRKLNSGGGLSEELGSARRSGEVTLTKGDPGSLEEWETVVGDDFSLYYDSYSVDERVDSDSKSEVEALTEQLSEEEEEEEEEEEEEEEEEEEEEEEEDEESGNQSDRSGSSGRRKAKKKWRKDSPWVKPSRKRRKREPPRAKEPRGVNGVGSSGPSEYMEVPLGSLELPSEGTLSPNHAGVSNDTSSLETERGFEELPLCSCRMEAPKIDRISERAGHKCMATESVDGELSGCNAAILKRETMRPSSRVALMVLCETHRARMVKHHCCPGCGYFCTAGTFLECHPDFRVAHRFHKACVSQLNGMVFCPHCGEDASEAQEVTIPRGDGVTPPAGTAAPAPPPLSQDVPGRADTSQPSARMRGHGEPRRPPCDPLADTIDSSGPSLTLPNGGCLSAVGLPLGPGREALEKALVIQESERRKKLRFHPRQLYLSVKQGELQKVILMLLDNLDPNFQSDQQSKRTPLHAAAQKGSVEICHVLLQAGANINAVDKQQRTPLMEAVVNNHLEVARYMVQRGGCVYSKEEDGSTCLHHAAKIGNLEMVSLLLSTGQVDVNAQDSGGWTPIIWAAEHKHIEVIRMLLTRGADVTLTDNEENICLHWASFTGSAAIAEVLLNARCDLHAVNYHGDTPLHIAARESYHDCVLLFLSRGANPELRNKEGDTAWDLTPERSDVWFALQLNRKLRLGVGNRAIRTEKIICRDVARGYENVPIPCVNGVDGEPCPEDYKYISENCETSTMNIDRNITHLQHCTCVDDCSSSNCLCGQLSIRCWYDKDGRLLQEFNKIEPPLIFECNQACSCWRNCKNRVVQSGIKVRLQLYRTAKMGWGVRALQTIPQGTFICEYVGELISDAEADVREDDSYLFDLDNKDGEVYCIDARYYGNISRFINHLCDPNIIPVRVFMLHQDLRFPRIAFFSSRDIRTGEELGFDYGDRFWDIKSKYFTCQCGSEKCKHSAEAIALEQSRLARLDPHPELLPELGSLPPVNT
Binder B1 has a Kd of 66 µM.
